Measured values reported in patent US20180002383A1.

How the values were obtained:
[1] = target: human GLUT-1 glucose transporter, endogenous on cells (the 'HTLV receptor' on HeLa, 293T, Jurkat cells and human erythrocytes) (human) (UniProt P11166); assay: cell-based or functional assay
[2] = target: human GLUT-1 glucose transporter, endogenous on cells (the 'HTLV receptor' on HeLa, 293T, Jurkat cells and human erythrocytes) (human) (UniProt P11166)

Sequence of human GLUT-1 glucose transporter, endogenous on cells (the 'HTLV receptor' on HeLa, 293T, Jurkat cells and human erythrocytes) (human) (P11166 whole entry): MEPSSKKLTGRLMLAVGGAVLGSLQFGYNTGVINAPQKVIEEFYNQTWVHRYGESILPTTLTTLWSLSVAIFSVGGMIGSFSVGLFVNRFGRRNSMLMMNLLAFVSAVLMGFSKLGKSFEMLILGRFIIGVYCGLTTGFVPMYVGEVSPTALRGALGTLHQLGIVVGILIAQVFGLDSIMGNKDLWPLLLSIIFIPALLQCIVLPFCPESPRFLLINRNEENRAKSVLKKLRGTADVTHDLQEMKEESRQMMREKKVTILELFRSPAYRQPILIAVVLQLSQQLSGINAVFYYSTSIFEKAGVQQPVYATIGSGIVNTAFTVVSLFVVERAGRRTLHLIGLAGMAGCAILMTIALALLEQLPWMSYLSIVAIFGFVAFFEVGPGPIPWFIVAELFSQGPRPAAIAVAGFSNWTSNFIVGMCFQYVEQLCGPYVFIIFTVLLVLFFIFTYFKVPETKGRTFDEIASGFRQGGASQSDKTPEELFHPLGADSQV

Row | Substance | Lactate accumulation in culture supernatant [1] [fold lower] | fold increase of binding after overnight culture without glucose [2] [fold] | 2-deoxyglucose uptake (fold decrease) [1] | HTLV titers (infection of 293T cells by MLV particles pseudotyped with HTLV-2 envelope) [1] [logs]
1 | H183FEnv, non-syncytial chimeric envelope with the N-terminal 183 amino acids of the HTLV-1 receptor | 3 | – | – | –
2 | HTLV-1 RBD (H1RBD), first 215 residues of HTLV-1 SU fused to a C-terminal rabbit IgG Fc tag (rFc) (Fc fusion) | 3 | 2 | 4 | –
3 | HTLV-2 RBD (H2RBD), first 178 residues of HTLV2-SU fused to a C-terminal rabbit IgG Fc tag (rFc) (from UniProt P01868 98-324) (Fc fusion) | – | – | 4 | 2
